Measurements from patent US20250352661A1 (MYTHIC THERAPEUTICS, published 2025).
Positions count from the first letter of the chain named. In names and notes the source's numbering stands.

B1: MYT9532 (antibody, V domains shown)
VH: EVQLVESGGGLVQPGGSLRLSCTASGFSFSSSHWICWVRQAPGKGLEWVGCIYAGSIGSTYYASWAKGRFTISRDTSKNTVYLQMNSLRAEDTAVYYCARAPNDIYNYYFNLWGQGTLVTVSS
VL: EIVMTQSPSTLSASVGDRVIITCQASENIYNYLAWYQQKPGKAPKLLIYYASTLASGVPSRFSGSGSGAEFTLTISSLQPDDFATYYCQSGYVSKDSTFGQGTKLTVL
notes: also called hu29F1 VL S96D
B2: MYT9533 (antibody, V domains shown)
VH: B1 VH
VL: B1 VL with D96S, S97D
notes: also called hu29F1 VL S97D
B3: MYT9776 (antibody, V domains shown)
VH: EVQLVESGGGLVQPGGSLRLSCTASGFSFSGHYWICWVRQAPGKGLEWVGCIHGGSHDITYYASWAKGRFTISRDTSKNTVYLQKTSLRAEDTAVYYCASDTSYTAYGNFYFNLWGQGTLVTVSS
VL: EIVMTQSPSPLSASVGDRVIITCQSSQSVLNNNWLAWYQQKPGKAPKLLIYDASSLASGVPSRFSGSGSGAEFTLTISSLQPDDFATYYCQGEFSCGSADCNAFGQGTKLEIK
notes: LC EIK); also called hu24D9 HC Dev Combos, +LC FR4 EIK
B4: MYT8094 (antibody, IgG1, V domains shown)
VH: B1 VH
VL: B1 VL with D96S
notes: Humanized 29F1; also called hu29F1 Parental; hu29F1
B5: MYT9521 (antibody, V domains shown)
VH: B1 VH
VL: B1 VL with T53D, D96S
notes: LC descriptor T66D; also called hu29F1 LC Asp Var
B6: MYT9731 (antibody, V domains shown)
VH: B1 VH
VL: B1 VL with N28E, D96S
notes: LC descriptor N28E; also called hu29F1 LC Glu Var
B7: MYT9523 (antibody, V domains shown)
VH: B1 VH
VL: B1 VL with A55D, D96S
notes: LC descriptor A68D; also called hu29F1 LC Asp Var
B8: MYT7912 (antibody, V domains shown)
VH: QQQLVESGGGLVKPGASLTLTCKASGFSFSGSYWICWVRQAPGKGLEWIGCINGGSLDITYYASWAKGRFTISKASSTTVTLQKTSLTAADTATYFCASHTSYTAYGNFYFNLWGPGTLVTVSS
VL: AQVLTQTASPVSAAVGGTVTINCQSSQSVLNNNWLAWYQQKPGQPPKLLIYDASSLASGVPSRFKGSGSGTQFTLTISDLESDDAATYYCQGEFSCGSADCNAFGGGTEVVVKG
notes: rabbit 24D9 VH D100H; chimeric, human constant regions
B9: MYT7920 (antibody, V domains shown)
VH: B8 VH with H100D, N108H
VL: B8 VL
notes: rabbit 24D9 VH N108H; chimeric, human constant regions
B10: MYT7915 (antibody, V domains shown)
VH: B8 VH with H100D, Y103H
VL: B8 VL
notes: rabbit 24D9 VH Y103H; chimeric, human constant regions
B11: MYT7914 (antibody, V domains shown)
VH: B8 VH with H100D, S102H
VL: B8 VL
notes: rabbit 24D9 VH S102H; chimeric, human constant regions
B12: MYT7922 (antibody, V domains shown)
VH: B8 VH with H100D, Y110H
VL: B8 VL
notes: rabbit 24D9 VH Y110H; chimeric, human constant regions
B13: MYT7917 (antibody, V domains shown)
VH: B8 VH with H100D, A105H
VL: B8 VL
notes: rabbit 24D9 VH A105H; chimeric, human constant regions
B14: MYT7925 (antibody, V domains shown)
VH: B8 VH with H100D, L113H
VL: B8 VL
notes: rabbit 24D9 VH L113H; chimeric, human constant regions
B15: MYT7913 (antibody, V domains shown)
VH: B8 VH with H100D, T101H
VL: B8 VL
notes: rabbit 24D9 VH T101H; chimeric, human constant regions
B16: MYT7916 (antibody, V domains shown)
VH: B8 VH with H100D, T104H
VL: B8 VL
notes: rabbit 24D9 VH T104H; chimeric, human constant regions
B17: MYT7923 (antibody, V domains shown)
VH: B8 VH with H100D, F111H
VL: B8 VL
notes: rabbit 24D9 VH F111H; chimeric, human constant regions
B18: MYT7921 (antibody, V domains shown)
VH: B8 VH with H100D, F109H
VL: B8 VL
notes: rabbit 24D9 VH F109H; chimeric, human constant regions
B19: MYT7919 (antibody, V domains shown)
VH: B8 VH with H100D, G107H
VL: B8 VL
notes: rabbit 24D9 VH G107H; chimeric, human constant regions
B20: MYT7924 (antibody, V domains shown)
VH: B8 VH with H100D, N112H
VL: B8 VL
notes: rabbit 24D9 VH N112H; chimeric, human constant regions
B21: MYT7918 (antibody, V domains shown)
VH: B8 VH with H100D, Y106H
VL: B8 VL
notes: rabbit 24D9 VH Y106H; chimeric, human constant regions

Biological target: T1, Human LRRC15 Protein, His Tag, Acro Biosystems (human, UniProt Q8TF66 22-538, limits assumed)
T1 construct: not shown: His tag
T1 sequence (looked up): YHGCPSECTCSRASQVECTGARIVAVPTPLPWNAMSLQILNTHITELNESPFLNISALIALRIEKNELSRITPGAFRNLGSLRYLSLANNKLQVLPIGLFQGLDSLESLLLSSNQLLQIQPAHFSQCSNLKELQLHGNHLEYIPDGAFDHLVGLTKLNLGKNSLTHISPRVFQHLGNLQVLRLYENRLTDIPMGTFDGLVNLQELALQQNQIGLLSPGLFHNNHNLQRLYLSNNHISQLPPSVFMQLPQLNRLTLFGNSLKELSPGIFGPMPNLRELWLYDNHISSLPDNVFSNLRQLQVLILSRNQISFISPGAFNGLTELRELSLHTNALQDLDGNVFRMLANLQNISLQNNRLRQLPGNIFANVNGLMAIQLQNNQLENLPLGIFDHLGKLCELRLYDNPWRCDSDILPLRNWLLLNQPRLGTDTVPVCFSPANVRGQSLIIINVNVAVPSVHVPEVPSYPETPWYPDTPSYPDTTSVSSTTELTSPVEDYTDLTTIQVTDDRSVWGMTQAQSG
Assay: BLI; dissociation pH 7.4 black, pH 5.4 grey [D00022 FIG. 5B]
Description: The resulting diluted supernatants were then captured on an anti-human Fc sensor (Forte Bio). A baseline was established using 1×PBST (50 mM Potassium Phosphate Buffer+150 mM NaCl+0.05% Tween 20) pH 7.4, and the […] was associated with 50 nM of LRRC15 (Human LRRC15 Protein, His Tag, Acro Biosystems) in 1×PBST pH 7.4 for 120 sec to generate an association curve. In the dissociation phase, the antibody-antigen complex on the sensor was exposed to 1×PBST pH 7.4 or pH 5.4, for 300 sec. Association and dissociation phase curves were examined for the starting ABPC antibody (with no substitutions) and each corresponding antibody variant at pH 5.4 and pH 7.4 to inform on two criteria: a) enhanced dissociation (i.e., higher koff values) at pH 5.4 due to histidine substitution compared to the starting ABPC, (with no substitutions), and b) reduced dissociation at pH 7.4 (i.e., lower koff values) compared to pH 5.4 in the antibody variant itself and with the starting ABPC (with no substitutions).
Briefly, CDRs in the 15G7 light chain were identified using the methods described in Example 9, and for each CDR, residues falling under either or both Kabat and IMGT CDR definitions were called as CDR residues. To generate pH-dependent sequence variants, individual amino acid residues within the light chain CDRs were systematically substituted with a histidine, one at a time (rabbit, MYT6122-6151). Desirable mutations were transferred to a humanized framework MYT8413-8487). After allowing for four days of protein expression, cell culture supernatants were collected, quantified by SDS-PAGE analysis, and the pH dependence of the variant was evaluated using biolayer interferometry (BLI) on an Octet RED 96e instrument (as described in Example 9). […]

| Binder | binding result |
| --- | --- |
| B1 | binds |
| B2 | binds |

Biological target: T2, LRRC15 on LRRC15 positive cell lines SAOS2 and G292 (UniProt Q8TF66 22-581, limits assumed)
T2 construct: whole, on cells
T2 sequence (looked up): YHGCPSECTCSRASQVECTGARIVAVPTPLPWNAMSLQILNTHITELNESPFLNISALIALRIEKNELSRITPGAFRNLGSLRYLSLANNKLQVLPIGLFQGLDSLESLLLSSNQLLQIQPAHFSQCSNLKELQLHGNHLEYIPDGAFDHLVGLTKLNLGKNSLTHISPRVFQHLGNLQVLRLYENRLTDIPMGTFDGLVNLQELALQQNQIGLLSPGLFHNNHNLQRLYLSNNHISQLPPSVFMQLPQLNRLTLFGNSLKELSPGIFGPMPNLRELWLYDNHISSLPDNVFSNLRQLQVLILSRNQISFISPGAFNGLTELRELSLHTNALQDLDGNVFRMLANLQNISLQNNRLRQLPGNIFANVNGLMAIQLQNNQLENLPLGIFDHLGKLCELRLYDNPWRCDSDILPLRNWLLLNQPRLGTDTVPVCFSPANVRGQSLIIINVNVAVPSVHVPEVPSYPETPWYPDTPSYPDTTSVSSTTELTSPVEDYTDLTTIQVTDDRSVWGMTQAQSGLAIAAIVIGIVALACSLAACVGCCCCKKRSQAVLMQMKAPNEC
Assay: cell binding on SAOS2 cells (LRRC15 positive), pH 7.4
Design: unit not given here

| Binder | Affinity |
| --- | --- |
| B3 | 7.32 |
| B4 | 1.71 |
| B5 | 1.58 |
| B6 | 0.352 |
| B7 | 0.817 |

Biological target: T3, Human LRRC15 Protein, His Tag (Acro Biosystems) (human, UniProt Q8TF66 22-538, limits assumed)
T3 construct: Bought protein with His tag
T3 sequence (looked up): T1 sequence (looked up)
Assay: BLI; dissociation pH 7.4 black, pH 5.4 grey [2/2); D00014 FIG. 2B (2/2]

| Binder | binding result |
| --- | --- |
| B8 | no binding (tested: 50 nM LRRC15) |
| B9 | no binding (tested: 50 nM LRRC15) |
| B10 | no binding (tested: 50 nM LRRC15) |
| B11 | binds |
| B12 | binds |
| B13 | binds |
| B14 | binds |
| B15 | binds |
| B16 | binds |
| B17 | binds |
| B18 | no binding (tested: 50 nM LRRC15) |
| B19 | no binding (tested: 50 nM LRRC15) |
| B20 | binds |
| B21 | binds |
